From the supplement of paper PMC10567573
± gives the standard deviation.

Experiment: protein stability index of a GFP-peptide fusion (GPS, HEK-293T) (PSI 1-6); higher = more stable
Conditions: c terminus: a fixed tail appended
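Further: 24-mer peptide tiles fused after GFP, lentivirally expressed, FACS-sorted into six equal bins by GFP/DsRed ratio, decoded by Illumina sequencing, PSI is the read-weighted mean bin number.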

## VCMTFMKQIAGGDVTAKNIWLAES [INTS3]
treatment: DMSO
  protein stability index: 2.53 ± 0.62
treatment: MLN4924 1 uM, 8 h
  protein stability index: 2.92 ± 0.6

## IKELYENFCKHNGSKNVFSTFRTP [ATL3]
treatment: DMSO
  protein stability index: 2.24 ± 0.36
treatment: MLN4924 1 uM, 8 h
  protein stability index: 2.29 ± 0.39

## MCNVKAPLGSPSPRPRRAKRFASL [ADAMTS4]
treatment: DMSO
  protein stability index: 3.69 ± 0.26
treatment: MLN4924 1 uM, 8 h
  protein stability index: 3.77 ± 0.21

## FRQFGYQDSPGPREAVSQLRELCR [ZNF24]
treatment: DMSO
  protein stability index: 3.37 ± 0.17
treatment: MLN4924 1 uM, 8 h
  protein stability index: 3.38 ± 0.15

## FLFQKPGDKYEHHSYMGMRGFCAF [POMT2]
treatment: DMSO
  protein stability index: 2.55 ± 0.75
treatment: MLN4924 1 uM, 8 h
  protein stability index: 1.99 ± 0.22

## KRRANQKSSAQGPIPWFLPESRSL [PPEF2]
treatment: DMSO
  protein stability index: 3.49 ± 0.23
treatment: MLN4924 1 uM, 8 h
  protein stability index: 3.57 ± 0.16

## VSTRLTVLREDQIPRGFPTIDMGP [PTPRD]
treatment: DMSO
  protein stability index: 2.33 ± 0.47
treatment: MLN4924 1 uM, 8 h
  protein stability index: 2.53 ± 0.18

## PKKISDLDHCANRVLMYGSELDAD [TPH1]
treatment: DMSO
  protein stability index: 4.58 ± 0.083
treatment: MLN4924 1 uM, 8 h
  protein stability index: 4.47 ± 0.088

## CRLDYRRPENRSFYLALYKQMSFL [TCF25]
treatment: DMSO
  protein stability index: 2.33 ± 0.6
treatment: MLN4924 1 uM, 8 h
  protein stability index: 2.28 ± 0.66

## QAQKCYRDLALVSRDGMNIVLNKI [INTS3]
treatment: DMSO
  protein stability index: 2.29 ± 0.23
treatment: MLN4924 1 uM, 8 h
  protein stability index: 2.61 ± 0.44

## GGARSLWRGNGINVLKIAPESAIK [SLC25A25]
treatment: DMSO
  protein stability index: 3.29 ± 0.45
treatment: MLN4924 1 uM, 8 h
  protein stability index: 3.19 ± 0.47

## RGRYGPPSRRSENRVVVSGLPPSG [SRSF1]
treatment: DMSO
  protein stability index: 4.08 ± 0.14
treatment: MLN4924 1 uM, 8 h
  protein stability index: 4.16 ± 0.17

## AQRVRAAMFPETLDEGMQIPSTQF [CTNNB1]
treatment: DMSO
  protein stability index: 3.62 ± 0.23
treatment: MLN4924 1 uM, 8 h
  protein stability index: 3.65 ± 0.16

## VPIGASIYVIGDLDTGTNYDYVRE [GAN]
treatment: DMSO
  protein stability index: 2.29 ± 0.45
treatment: MLN4924 1 uM, 8 h
  protein stability index: 2.21 ± 0.31

## QSSGLIRHQRIHTGERPYECNECG [ZSCAN9]
treatment: DMSO
  protein stability index: 4.03 ± 0.36
treatment: MLN4924 1 uM, 8 h
  protein stability index: 4 ± 0.49

## KDGKAFHPTYEEKLKLVALHKQVL [ACBD3]
treatment: DMSO
  protein stability index: 2.68 ± 0.33
treatment: MLN4924 1 uM, 8 h
  protein stability index: 2.65 ± 0.11

## EISVDSLDFSKKILHTAWHPSENI [PPP2R2B]
treatment: DMSO
  protein stability index: 2.28 ± 0.26
treatment: MLN4924 1 uM, 8 h
  protein stability index: 2.41 ± 0.21

## GSEAAVIPLDLGCTQVTQDGDIPN [FAM189A2]
treatment: DMSO
  protein stability index: 5.05 ± 0.39
treatment: MLN4924 1 uM, 8 h
  protein stability index: 5.26 ± 0.5

## PNKDMVVQLIDDFKISGMNGIHVC [SRPK2]
treatment: DMSO
  protein stability index: 2.38 ± 0.27
treatment: MLN4924 1 uM, 8 h
  protein stability index: 2.35 ± 0.25

## MNLHVYISEHEHFTDFNATSALFW [CLPTM1]
treatment: DMSO
  protein stability index: 2.94 ± 0.5
treatment: MLN4924 1 uM, 8 h
  protein stability index: 2.79 ± 0.39

## GQLRVFGAGLLSSISELKHALSGH [TPH1]
treatment: DMSO
  protein stability index: 2.24 ± 0.27
treatment: MLN4924 1 uM, 8 h
  protein stability index: 2.13 ± 0.19

## ESVVSSAVPAAATRTTSFKGTSPS [KCTD10]
treatment: DMSO
  protein stability index: 5.09 ± 0.056
treatment: MLN4924 1 uM, 8 h
  protein stability index: 5.25 ± 0.21

## NYLVRLSFHNLKFDCSTANKIFLR [ZNF277]
treatment: DMSO
  protein stability index: 2.46 ± 0.4
treatment: MLN4924 1 uM, 8 h
  protein stability index: 2.55 ± 0.25

## LKPTLTIIKTEKVDLELFPSPDME [ETS1]
treatment: DMSO
  protein stability index: 3.4 ± 0.18
treatment: MLN4924 1 uM, 8 h
  protein stability index: 3.21 ± 0.32

## GYFFPTSARDCKFTGNFFYNYMMG [DHCR7]
treatment: DMSO
  protein stability index: 2.36 ± 0.38
treatment: MLN4924 1 uM, 8 h
  protein stability index: 2.36 ± 0.21

## WFIHLVFVVLAFLTGVLCSYPNPN [TMEM192]
treatment: DMSO
  protein stability index: 3.346 ± 0.002
treatment: MLN4924 1 uM, 8 h
  protein stability index: 2.89 ± 0.56

## WEPFDWGRLLEALCREEPVVQGPD [FANCE]
treatment: DMSO
  protein stability index: 3.001 ± 0.014
treatment: MLN4924 1 uM, 8 h
  protein stability index: 3.22 ± 0.23

## KPHRLGDSEHEPVYRAELVGELNG [PWWP2B]
treatment: DMSO
  protein stability index: 5.01 ± 0.13
treatment: MLN4924 1 uM, 8 h
  protein stability index: 4.5 ± 0.4

## LANHTGYIKVDWQRVEKDMKKAKE [FUNDC2]
treatment: DMSO
  protein stability index: 4.11 ± 0.21
treatment: MLN4924 1 uM, 8 h
  protein stability index: 4.08 ± 0.19

## AAFVRAQADLLAHLVPEPDRLEEQ [DNAAF3]
treatment: DMSO
  protein stability index: 4.05 ± 0.13
treatment: MLN4924 1 uM, 8 h
  protein stability index: 4.12 ± 0.29

## ETVTVTVGPAEPTLVNFHLKRSIP [CPN1]
treatment: DMSO
  protein stability index: 3.02 ± 0.3
treatment: MLN4924 1 uM, 8 h
  protein stability index: 3.16 ± 0.2

## GGADIIVIKYNVNDKFSFHEVKDN [RHOBTB3]
treatment: DMSO
  protein stability index: 2.72 ± 0.42
treatment: MLN4924 1 uM, 8 h
  protein stability index: 2.09 ± 0.55
